Measured values taken from paper doi:10.1101/2024.05.21.594841 (bioRxiv, 2024).
Where two headings read alike, the source gives them in different places.

B1: Kar2p (natural protein)
chain: not shown

Assays:
Test in all cases: split reporter
Lto1p = target: T1, Lto1p (yeast, UniProt P53846 1-162)
T1 sequence: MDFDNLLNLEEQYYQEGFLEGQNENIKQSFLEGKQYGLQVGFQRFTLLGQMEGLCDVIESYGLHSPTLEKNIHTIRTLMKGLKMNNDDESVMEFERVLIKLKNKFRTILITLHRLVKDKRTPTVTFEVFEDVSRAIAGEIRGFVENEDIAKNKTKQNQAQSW

Sil1p = target: T2, Sil1p (S. cerevisiae, UniProt Q08199 20-421)
T2 sequence: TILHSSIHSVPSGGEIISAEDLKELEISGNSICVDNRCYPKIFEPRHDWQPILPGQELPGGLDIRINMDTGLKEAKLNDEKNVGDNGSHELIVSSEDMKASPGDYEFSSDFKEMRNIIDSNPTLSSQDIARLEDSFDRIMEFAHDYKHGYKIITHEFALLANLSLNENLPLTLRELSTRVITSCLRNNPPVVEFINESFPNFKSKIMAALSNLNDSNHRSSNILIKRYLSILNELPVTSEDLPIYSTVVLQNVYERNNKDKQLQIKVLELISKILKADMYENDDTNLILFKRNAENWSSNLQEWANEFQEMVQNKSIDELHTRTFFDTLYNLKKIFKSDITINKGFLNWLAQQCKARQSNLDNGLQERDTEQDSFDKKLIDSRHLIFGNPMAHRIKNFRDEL

Cpr5p [1] = target: T3, Cpr5p (S. cerevisiae, UniProt P35176 23-225)
Kar2p [2] = target: B1
Yos9p = target: T4, Yos9p (S. cerevisiae, UniProt Q99220 22-542)
T4 sequence: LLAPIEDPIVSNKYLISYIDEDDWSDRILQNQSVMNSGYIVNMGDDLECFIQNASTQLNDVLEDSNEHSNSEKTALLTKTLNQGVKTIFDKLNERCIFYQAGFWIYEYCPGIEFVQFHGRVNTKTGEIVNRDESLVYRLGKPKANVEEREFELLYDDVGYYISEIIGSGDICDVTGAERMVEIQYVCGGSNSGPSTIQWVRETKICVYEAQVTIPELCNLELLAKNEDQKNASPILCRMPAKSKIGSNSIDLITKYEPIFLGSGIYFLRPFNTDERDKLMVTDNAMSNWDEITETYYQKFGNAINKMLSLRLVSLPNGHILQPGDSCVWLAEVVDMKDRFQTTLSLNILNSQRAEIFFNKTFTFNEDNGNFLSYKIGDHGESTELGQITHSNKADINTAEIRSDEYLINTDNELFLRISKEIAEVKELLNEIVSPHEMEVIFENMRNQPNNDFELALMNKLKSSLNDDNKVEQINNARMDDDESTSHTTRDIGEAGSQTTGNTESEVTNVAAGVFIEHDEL

Mpd1p [3] = target: T5, Mpd1p (S. cerevisiae, UniProt Q12404 22-318)
T5 sequence: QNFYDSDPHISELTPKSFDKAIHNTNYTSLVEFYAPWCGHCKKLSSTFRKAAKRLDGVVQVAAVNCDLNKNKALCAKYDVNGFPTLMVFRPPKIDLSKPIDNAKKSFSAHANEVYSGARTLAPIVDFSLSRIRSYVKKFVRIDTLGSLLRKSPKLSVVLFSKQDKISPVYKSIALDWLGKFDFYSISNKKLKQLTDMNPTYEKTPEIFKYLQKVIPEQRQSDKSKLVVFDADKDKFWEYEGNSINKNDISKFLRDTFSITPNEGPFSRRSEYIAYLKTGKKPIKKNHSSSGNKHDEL

Scj1p = target: T6, Scj1p (S. cerevisiae, UniProt P25303 22-377)
T6 sequence: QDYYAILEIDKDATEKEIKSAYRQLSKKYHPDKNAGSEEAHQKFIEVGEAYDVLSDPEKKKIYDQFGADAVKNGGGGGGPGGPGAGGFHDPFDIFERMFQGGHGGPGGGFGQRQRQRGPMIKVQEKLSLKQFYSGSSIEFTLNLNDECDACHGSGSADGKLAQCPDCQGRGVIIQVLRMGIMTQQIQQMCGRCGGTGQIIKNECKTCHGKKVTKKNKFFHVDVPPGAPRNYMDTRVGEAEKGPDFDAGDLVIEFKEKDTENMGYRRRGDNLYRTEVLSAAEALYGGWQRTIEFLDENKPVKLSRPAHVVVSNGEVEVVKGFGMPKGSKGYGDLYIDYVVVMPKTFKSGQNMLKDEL

Cpr5p [4] = target: T3, Cpr5p; remark: listed apart in the source
Mpd1p [5] = target: T5, Mpd1p; remark: listed apart in the source
Kar2p [6] = target: B1; remark: listed apart in the source

T3 sequence (P35176 23-225): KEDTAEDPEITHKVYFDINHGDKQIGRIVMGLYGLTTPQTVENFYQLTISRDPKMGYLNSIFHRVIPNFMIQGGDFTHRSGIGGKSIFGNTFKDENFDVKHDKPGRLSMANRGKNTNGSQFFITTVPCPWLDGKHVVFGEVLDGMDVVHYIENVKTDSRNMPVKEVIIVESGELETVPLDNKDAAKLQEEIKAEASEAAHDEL
Kar2p, sequence (P16474 43-682): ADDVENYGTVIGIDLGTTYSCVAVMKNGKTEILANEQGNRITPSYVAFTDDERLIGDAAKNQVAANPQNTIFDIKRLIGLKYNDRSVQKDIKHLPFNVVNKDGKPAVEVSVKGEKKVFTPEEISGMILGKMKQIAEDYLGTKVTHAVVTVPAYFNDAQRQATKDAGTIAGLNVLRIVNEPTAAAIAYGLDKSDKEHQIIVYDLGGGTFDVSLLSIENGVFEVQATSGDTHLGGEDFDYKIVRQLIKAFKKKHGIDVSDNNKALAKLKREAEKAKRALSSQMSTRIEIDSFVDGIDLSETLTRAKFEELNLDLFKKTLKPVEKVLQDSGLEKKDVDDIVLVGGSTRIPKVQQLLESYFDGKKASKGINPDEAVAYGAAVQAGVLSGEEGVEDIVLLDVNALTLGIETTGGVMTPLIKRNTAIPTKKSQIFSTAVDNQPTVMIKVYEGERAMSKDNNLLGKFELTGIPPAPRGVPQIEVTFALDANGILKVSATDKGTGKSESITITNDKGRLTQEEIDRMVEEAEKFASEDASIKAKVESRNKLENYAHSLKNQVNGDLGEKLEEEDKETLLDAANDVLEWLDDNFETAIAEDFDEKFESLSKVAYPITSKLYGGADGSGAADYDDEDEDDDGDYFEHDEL

Binder | normalized interacting score (Sil1p) | normalized interacting score (Cpr5p [1]) | normalized interacting score (Scj1p) | normalized interacting score (Cpr5p [4]) | also measured
Yae1p (natural protein) MSNTWDDVWASDSDVETERSPDLVKLRENHSKRGYLDGIVSSKEEKLQEGFNDGFPTGAKLGKQVGIIMGILLGLRTRFGDEDEDLSKAYIDAQKELRINKVLSKSIFDPNFDLQEKHPLITKWTDIANTYCEKYHVPSIQ |  |  |  |  | normalized interacting score (Lto1p): 96%
Sec20p (natural protein) MVVTFLQDLEVLQDALLNNLQKLSAISRRKESGESKHDNKDSFAAIANEHNDEEEEIEFEDLVNIIESKVSDFESVLKCSIVEMTYKYPELKLQWEKSPRYDQCDKLHIVKLDKQMNEDIYAQLVEELDFVLQFVDWFYCYRLKVKEILRQHHKRDLAWNDEKRDRAIKFHAVDYDKLHQGTSSSSSLTSTSMEKASTREKLLSKTKQLTNNLVRGNQILQSGILQSDLNLDELRAQTNSLTQIDDKYTQFETVFKKTADLVKVLENASHQEKRDVYLSLGFLLCCVSWVLWRRIFKLPVKLGLWLLFKFFKGILVTLGLVKSYAGSSSSLQAPSLVLNAPILATTTTSSATSVEPFASVSAVSSIQRAVDEAVDRIVSHDEL | 32% | 26% |  |  | normalized interacting score (Kar2p [2]): 42%
B1 | 35% | 78% | 10% | 31% | normalized interacting score (Yos9p): 20%; normalized interacting score (Mpd1p [3]): 86%; normalized interacting score (Mpd1p [5]): 65%
Pdi1p (natural protein) PEDSAVVKLATDSFNEYIQSHDLVLAEFFAPWCGHCKNMAPEYVKAAETLVEKNITLAQIDCTENQDLCMEHNIPGFPSLKIFKNSDVNNSIDYEGPRTAEAIVQFMIKQSQPAVAVVADLPAYLANETFVTPVIVQSGKIDADFNATFYSMANKHFNDYDFVSAENADDDFKLSIYLPSAMDEPVVYNGKKADIADADVFEKWLQVEALPYFGEIDGSVFAQYVESGLPLGYLFYNDEEELEEYKPLFTELAKKNRGLMNFVSIDARKFGRHAGNLNMKEQFPLFAIHDMTEDLKYGLPQLSEEAFDELSDKIVLESKAIESLVKDFLKGDASPIVKSQEIFENQDSSVFQLVGKNHDEIVNDPKKDVLVLYYAPWCGHCKRLAPTYQELADTYANATSDVLIAKLDHTENDVRGVVIEGYPTIVLYPGGKKSESVVYQGSRSLDSLFDFIKENGHFDVDGKALYEEAQEKAAEEADADAELADEEDAIHDEL |  | 32% |  | 18% | 
Sed4p (natural protein) MSGNSANYDVGYPIYGAKFINEGTLLVAGGGGQFNSSFPNKITALKVNFQKKKHIRRFREITLDSIDDAPTSLDCNNNLILVGCNELFNDSSMENVNHHLRKFVFEQEHLKFVASIDFNRTTDPSVFTKFVYINQRATVAAIASSEVPTVIRIIDPRNLTENYEIETGREVNDLHFAPNGILLSYITSNSLEVASVRDGNFVARKTDFDKNLVLSNIRFLNDNTLLVAASLSNSDGVSLLKLGVSSKGVKILKTASFMFDLNGITSMDVSPNKKFVALSSNDNLVAIVSVEKLKLVQLVPRVHESTITKVTFSPDSRYLASTSMGNTINVLKLSGTSSSILRNIWKFFLNFVLLVVLAGAIQLGYKHNVHGFIYKHAHDIYKSKFKENTTIDQGSSSYFTINDDYRGITESADIISATDVASDIETEFSSFDTSTMRTTTEDEQKFVWISSSADSQFTSADIPTSASSSSSSSSSSFYEESVTNEPIVSSPTSEITKPLASPTEPNIVEKPSLPLNSESIDLLSSSSNSITEYPEPTPDLEEKLSSLIVEQSESEITTDRESVSKLLSTESPSLSHMPSSSSSSLSLSSSLTTSPTTALSTSTATAVTTTQTNPTNDAANTSFLDNSKPASTREIYKTKIITEVITKIEYRNIPASDSNAEAEQYVTTSSSMLLTPTDTMVSSPVSEIDPIASELERMVETPTHSISIASEFDSVASNLIPNEEILSTSASQDSISSHPSTFSDSSITSGFQSIEVSTVTSSVLASESIPSISDSTFSKFHSISEPVSSAIVETATSSFSKTETKTSRVIAFSTEDSERSSALIDNSEYTSVLADNLEPTSVLADNSEPTSVLADSSEPTSVFTDAVQSPKTSVGQSSLSESTNIEGTSMASMIFSSSGASIGALSDIGKGTLSVESASSTVAQPMPGVTTTAPSFVSSPHKISASSIDASGFVQKEIMIEVQSSKDSSEAFGVRHKISENVNTPVSRMLTTEMQASGTVDVTEDVSLSSEVISALNVEITSLPNPVAPPQTIAAPLNNNSNTNIVNDDNAVAGTVNYAGLHDEL |  |  |  |  | normalized interacting score (Kar2p [6]): 34%
Eug1p (natural protein) TPGSDLLVLTEKKFKSFIESHPLVLVEFFAPWCLHSQILRPHLEEAASILKEHNVPVVQIDCEANSMVCLQQTINTYPTLKIFKNGRIFDGQVYRGVKITDEITQYMIQLYEASVIYLNSEDEIQPYLENATLPVVINRGLTGLNETYQEVALDLAEDYVFLSLLDSEDKSLSIHLPNTTEPILFDGNVDSLVGNSVALTQWLKVVILPYFTDIEPDLFPKYISSNLPLAYFFYTSEEELEDYTDLFTQLGKENRGQINFIALNSTMFPHHVRFLNMREQFPLFAIHNMINNLKYGLPQLPEEEYAKLEKPQPLDRDMIVQLVKDYREGTAKPIVKSEEIPKEQKSNVYKIVGKTHDDIVHDDDKDVLVKYYATWCIHSKRFAPIYEEIANVLASDESVRDKILIAEVDSGANDILSFPVTGYPTIALYPAGNNSKPIIFNKIRNLEDVFEFIKESGTHHIDGQAIYDKLHQAKDSEVSTEDTVHDEL |  |  | 5% |  | 
